Measured values: paper PMC3639042 (Molecular Biology of the Cell, 2013)

What was measured:
[1] = target: septin complex (6His-Cdc12-Cdc3-Cdc10-Cdc11) (budding yeast, UniProt P32468 1-407; P32457 1-520; P25342 1-322; P32458 1-415); assay: pull-down
Hof1-4E–3HA = target: T1, Hof1-4E–3HA (budding yeast, UniProt Q05080 1-669, S313E | S421E | S533E | S563E); assay: co-IP
T1 sequence (looked up): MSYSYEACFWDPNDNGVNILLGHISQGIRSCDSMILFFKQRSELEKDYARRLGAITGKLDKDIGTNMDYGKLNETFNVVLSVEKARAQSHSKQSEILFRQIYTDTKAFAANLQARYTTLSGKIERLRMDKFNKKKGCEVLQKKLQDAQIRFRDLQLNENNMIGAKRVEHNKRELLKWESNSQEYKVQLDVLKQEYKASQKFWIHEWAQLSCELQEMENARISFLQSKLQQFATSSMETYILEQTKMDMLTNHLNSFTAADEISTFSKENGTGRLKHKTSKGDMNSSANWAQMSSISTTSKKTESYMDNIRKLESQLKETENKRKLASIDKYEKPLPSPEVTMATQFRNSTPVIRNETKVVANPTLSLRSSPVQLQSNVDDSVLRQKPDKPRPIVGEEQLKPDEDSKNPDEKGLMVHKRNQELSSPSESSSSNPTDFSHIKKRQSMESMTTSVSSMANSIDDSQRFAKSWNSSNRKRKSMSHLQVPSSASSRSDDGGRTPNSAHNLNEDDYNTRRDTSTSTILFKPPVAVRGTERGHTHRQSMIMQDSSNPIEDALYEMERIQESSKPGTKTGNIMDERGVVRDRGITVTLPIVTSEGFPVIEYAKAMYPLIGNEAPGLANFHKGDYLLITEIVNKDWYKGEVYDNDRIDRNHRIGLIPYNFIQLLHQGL

Sequence of septin complex (6His-Cdc12-Cdc3-Cdc10-Cdc11) (P32468 whole entry, chain 1 of 3): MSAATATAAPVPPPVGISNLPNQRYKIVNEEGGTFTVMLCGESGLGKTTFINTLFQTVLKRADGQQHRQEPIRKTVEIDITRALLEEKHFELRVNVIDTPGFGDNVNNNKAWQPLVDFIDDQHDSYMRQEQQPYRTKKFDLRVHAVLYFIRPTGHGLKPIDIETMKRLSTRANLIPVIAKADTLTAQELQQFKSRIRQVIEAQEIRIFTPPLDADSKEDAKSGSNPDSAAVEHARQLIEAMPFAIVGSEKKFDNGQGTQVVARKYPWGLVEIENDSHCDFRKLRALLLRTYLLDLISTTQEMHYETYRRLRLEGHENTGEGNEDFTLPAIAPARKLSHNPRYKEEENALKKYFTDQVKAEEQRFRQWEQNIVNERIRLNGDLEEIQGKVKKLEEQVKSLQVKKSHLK
Sequence of septin complex (6His-Cdc12-Cdc3-Cdc10-Cdc11) (P32457 whole entry, chain 2 of 3): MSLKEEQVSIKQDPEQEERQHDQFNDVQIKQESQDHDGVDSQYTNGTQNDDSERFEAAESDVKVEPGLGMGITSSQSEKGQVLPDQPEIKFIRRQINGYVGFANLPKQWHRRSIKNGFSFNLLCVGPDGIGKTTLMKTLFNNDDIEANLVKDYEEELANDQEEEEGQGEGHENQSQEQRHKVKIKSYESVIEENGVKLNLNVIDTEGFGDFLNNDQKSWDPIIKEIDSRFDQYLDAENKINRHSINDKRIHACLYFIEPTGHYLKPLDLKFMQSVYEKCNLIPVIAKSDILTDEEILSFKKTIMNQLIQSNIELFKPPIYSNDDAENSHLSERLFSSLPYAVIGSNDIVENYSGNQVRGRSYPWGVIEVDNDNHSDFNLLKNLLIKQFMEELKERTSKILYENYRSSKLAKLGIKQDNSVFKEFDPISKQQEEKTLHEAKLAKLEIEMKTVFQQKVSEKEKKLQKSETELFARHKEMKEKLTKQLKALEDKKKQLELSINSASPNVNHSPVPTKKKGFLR
Sequence of septin complex (6His-Cdc12-Cdc3-Cdc10-Cdc11) (P32458 whole entry, chain 4 of 3): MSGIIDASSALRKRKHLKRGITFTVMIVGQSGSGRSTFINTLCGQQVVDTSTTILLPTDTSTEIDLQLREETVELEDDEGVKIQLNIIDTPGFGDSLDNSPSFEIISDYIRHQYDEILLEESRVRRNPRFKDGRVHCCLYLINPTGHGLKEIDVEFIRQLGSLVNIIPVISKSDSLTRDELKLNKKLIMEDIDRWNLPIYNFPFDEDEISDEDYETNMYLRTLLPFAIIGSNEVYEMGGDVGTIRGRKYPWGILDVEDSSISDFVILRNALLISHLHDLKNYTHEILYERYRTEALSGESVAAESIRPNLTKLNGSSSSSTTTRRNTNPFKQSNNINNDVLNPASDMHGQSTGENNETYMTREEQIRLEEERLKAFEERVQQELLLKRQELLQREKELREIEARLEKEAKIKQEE

Row | Binder | binding result [1] | fold less coimmunoprecipitated than with Hof1-3HA (Hof1-4E–3HA) [fold]
1 | GST-HOF1-SID (aa 200–355) (domain or fragment, budding yeast, UniProt Q05080 200-355, looked up) KFWIHEWAQLSCELQEMENARISFLQSKLQQFATSSMETYILEQTKMDMLTNHLNSFTAADEISTFSKENGTGRLKHKTSKGDMNSSANWAQMSSISTTSKKTESYMDNIRKLSSQLKETENKRKLASIDKYEKPLPSPEVTMATQFRNSTPVIRN | binds | 
2 | Cdc10-TAP (natural protein, budding yeast, UniProt P25342 1-322, looked up) MDPLSSVQPASYVGFDTITNQIEHRLLKKGFQFNIMVVGQSGLGKSTLINTLFASHLIDSATGDDISALPVTKTTEMKISTHTLVEDRVRLNINVIDTPGFGDFIDNSKAWEPIVKYIKEQHSQYLRKELTAQRERFITDTRVHAILYFLQPNGKELSRLDVEALKRLTEIANVIPVIGKSDTLTLDERTEFRELIQNEFEKYNFKIYPYDSEELTDEELELNRSVRSIIPFAVVGSENEIEINGETFRGRKTRWSAINVEDINQCDFVYLREFLIRTHLQDLIETTSYIHYEGFRARQLIALKENANSRSSAHMSSNAIQR |  | 2.5
